The source of these data is FireProtDB.

The conditions of the series: whole UniProt chain shown.
Where [1] appears, read: Equus caballus, pH 4, 25 °C, GdnHCl, CD, Citrate 50 mM.
Where [2] appears, read: Equus caballus, pH 4, 25 °C, GdnHCl, CD, Formate 50 mM.
Setting [3] is: Equus caballus, pH 4, 25 °C, Urea, CD, Citrate 50 mM.
The mark [4] stands for this setting: Equus caballus, pH 4, 25 °C, Urea, CD, Formate 50 mM.
The mark [5] stands for this setting: Escherichia coli (strain K12), pH 7, Thermal, DSC, Potassium phosphate 50 mM, KCl 0.5 M, reversible: no.
Setting [6] is: Escherichia coli (strain K12), pH 7.8, 23 °C, Urea, Fluorescence, Tris-HCl 10 mM, NaCl 100 mM, reversible: yes.
Where [7] appears, read: Escherichia coli (strain K12), pH 7.5, 10 °C, Urea, CD, LcrH.
[8] abbreviates: Escherichia coli (strain K12), pH 7.5, 20 °C, Urea, CD, LcrH.
Where [9] appears, read: Escherichia coli (strain K12), pH 7.5, 20 °C, GdnHCl, CD, HEPES 5 mM, NiCl2 5 mM, reversible: Yes.

Values joined by “and” are separate entries in the source; they are usually repeats but may differ in a detail not shown here. Equal values may be shown once.

B1: Protein GrpE wild type, P09372 (protein)
chain: MSSKEQKTPEGQAPEEIIMDQHEEIEAVEPEASAEQVDPRDEKVANLEAQLAEAQTRERDGILRVKAEMENLRRRTELDIEKAHKFALEKFINELLPVIDSLDRALEVADKANPDMSAMVEGIELTLKSMLDVVRKFGVEVIAETNVPLDPNVHQAIAMVESDDVAPGNVLGIMQKGYTLNGRTIRAAMVTVAKAKA
As to B1, the Tm (Escherichia coli (strain K12), pH 7, Thermal, CD, potassium phosphate 25 mM, reversible: yes) is 48 °C and the Tm (Escherichia coli (strain K12), pH 7, Thermal, DSC, potassium phosphate 25 mM, reversible: yes) turned out to be 48 °C.

B2: Colicin-A wild type, Q47108 (protein)
chain: VAEKAKDERELLEKTSELIAGMGDKIGEHLGDKYKAIAKDIADNIKNFQGKTIRSFDDAMASLNKITANPAMKINKADRDALVNAWKHVDAQDMANKLGNLSKAFKVADVVMKVEKVREKSIEGYETGNWGPLMLEVESWVLSGIASSVALGIFSATLGAYALSLGVPAIAVGIAGILLAAVVGALIDDKFADALNNEIIRPAH
For B2, the Tm came to 39 °C (Escherichia coli, pH 3, Thermal, DSC, Na2HPO4-citrate 30 mM, reversible: no); 49 °C (Escherichia coli, pH 3.5, Thermal, DSC, Na2HPO4-citrate 30 mM, reversible: no); 56 °C (Escherichia coli, pH 4, Thermal, DSC, Na2HPO4-citrate 30 mM, reversible: no); 69 °C (Escherichia coli, pH 7, Thermal, DSC, Na2HPO4-citrate 30 mM, reversible: no); 67 °C (Escherichia coli, pH 8, Thermal, DSC, Na2HPO4-citrate 30 mM, reversible: no).

B3: DNA-Binding protein G5P wild type, P69542 (protein)
chain: MIKVEIKPSQAQFTTRSGVSRQGKPYSLNEQLCYVDLGNEYPVLVKITLDEGQPAYAPGLYTVHLSSFKVGQFGSLMIDRLRLVPAK
In the case of B3, the unfolding free energy (Enterobacteria phage fd, pH 7, 25 °C, GdnHCl, CD, MOPS 0.05 M, NaCl 0.1 M, reversible: yes) is 16.3 kcal/mol.

B4: ATP-dependent 6-phosphofructokinase isozyme 2 wild type, P06999 (protein)
chain: MVRIYTLTLAPSLDSATITPQIYPEGKLRCTAPVFEPGGGGINVARAIAHLGGSATAIFPAGGATGEHLVSLLADENVPVATVEAKDWTRQNLHVHVEASGEQYRFVMPGAALNEDEFRQLEEQVLEIESGAILVISGSLPPGVKLEKLTQLISAAQKQGIRCIVDSSGEALSAALAIGNIELVKPNQKELSALVNRELTQPDDVRKAAQEIVNSGKAKRVVVSLGPQGALGVDSENCIQVVPPPVKSQSTVGAGDSMVGAMTLKLAENASLEEMVRFGVAAGSAATLNQGTRLCSHDDTQKIYAYLSR
With B4, the unfolding free energy turned out to be 12.1 kcal/mol (Escherichia coli (strain K12), pH 7.8, 20 °C, GdnHCl, Activity, Tris 50 mM, Magnesiun chloride 5 mM, reversible: Yes); 12.2 kcal/mol (Escherichia coli (strain K12), pH 7.8, 20 °C, GdnHCl, CD, Tris 50 mM, Magnesiun chloride 5 mM, reversible: Yes); 11.9 kcal/mol (Escherichia coli (strain K12), pH 7.8, 20 °C, GdnHCl, Fluorescence, Tris 50 mM, Magnesiun chloride 5 mM, reversible: Yes).

B5: Chemotaxis protein CheY wild type, P0AE67 (protein)
chain: MADKELKFLVVDDFSTMRRIVRNLLKELGFNNVEEAEDGVDALNKLQAGGYGFVISDWNMPNMDGLELLKTIRADGAMSALPVLMVTAEAKKENIIAAAQAGASGYVVKPFTAATLEEKLNKIFEKLGM
Take B5: the unfolding free energy (Escherichia coli (strain K12), pH 7, 25 °C, Urea, Fluorescence, Cacodylate 100 mM) was determined as 5.6 kcal/mol.

B6: Aspartate carbamoyltransferase catalytic subunit wild type, P0A786 (protein)
chain: MANPLYQKHIISINDLSRDDLNLVLATAAKLKANPQPELLKHKVIASCFFEASTRTRLSFETSMHRLGASVVGFSDSANTSLGKKGETLADTISVISTYVDAIVMRHPQEGAARLATEFSGNVPVLNAGDGSNQHPTQTLLDLFTIQETQGRLDNLHVAMVGDLKYGRTVHSLTQALAKFDGNRFYFIAPDALAMPQYILDMLDEKGIAWSLHSSIEEVMAEVDILYMTRVQKERLDPSEYANVKAQFVLRASDLHNAKANMKVLHPLPRVDEIATDVDKTPHAWYFQQAGNGIFARQALLALVLNRDLVL
B6: the unfolding free energy (Escherichia coli (strain K12), pH 8.3, 7.5 °C, Urea, Absorbance, HEPES 0.1 M, reversible: yes) worked out at 2 kcal/mol.

B7: Glutamine-binding periplasmic protein wild type, P0AEQ3 (protein)
chain: MKSVLKVSLAALTLAFAVSSHAADKKLVVATDTAFVPFEFKQGDKYVGFDVDLWAAIAKELKLDYELKPMDFSGIIPALQTKNVDLALAGITITDERKKAIDFSDGYYKSGLLVMVKANNNDVKSVKDLDGKVVAVKSGTGSVDYAKANIKTKDLRQFPNIDNAYMELGTNRADAVLHDTPNILYFIKTAGNGQFKAVGDSLEAQQYGIAFPKGSDELRDKVNGALKTLRENGTYNEIYKKWFGTEPK
Regarding B7, the Tm (Escherichia coli (strain K12), pH 8.3, Thermal, Absorbance, Tris-HCl 10 mM) is 63.1 °C and 66.2 °C.

B8: Shikimate kinase 2 wild type, P10880 (protein)
chain: MTEPIFMVGARGCGKTTVGRELARALGYEFVDTDIFMQHTSGMTVADVVAAEGWPGFRRRESEALQAVATPNRVVATGGGMVLLEQNRQFMRAHGTVVYLFAPAEELALRLQASPQAHQRPTLTGRPIAEEMEAVLREREALYQDVAHYVVDATQPPAAIVCELMQTMRLPAA
B8: the “denaturant midpoint (higher = more stable)” value (Dickeya chrysanthemi, pH 7.6, 25 °C, Urea, Fluorescence, Tris-HCl 35 mM, KCl 5 mM) was 2.1 M.

B9: Beta-lactoglobulin-1 wild type, P02758 (protein)
chain: MKCLLLALGLALMCGIQATNIPQTMQDLDLQEVAGKWHSVAMAASDISLLDSESAPLRVYIEKLRPTPEDNLEIILREGENKGCAEKKIFAEKTESPAEFKINYLDEDTVFALDTDYKNYLFLCMKNAATPGQSLVCQYLARTQMVDEEIMEKFRRALQPLPGRVQIVPDLTRMAERCRI
On to B9, for which the denaturant m value runs as follows: under setting [1], 4.74 kcal/mol/M; under setting [2], 1.54 kcal/mol/M; under setting [3], 2.9 kcal/mol/M; under setting [4], 0.74 kcal/mol/M. For the same protein, the unfolding free energy by setting is: under setting [1], 10.1 kcal/mol; under setting [2], 3.92 kcal/mol; under setting [3], 9.83 kcal/mol; under setting [4], 2.9 kcal/mol.

B10: Inorganic pyrophosphatase wild type, P0A7A9 (protein)
chain: MSLLNVPAGKDLPEDIYVVIEIPANADPIKYEIDKESGALFVDRFMSTAMFYPCNYGYINHTLSLDGDPVDVLVPTPYPLQPGSVIRCRPVGVLKMTDEAGEDAKLVAVPHSKLSKEYDHIKDVNDLPELLKAQIAHFFEHYKDLEKGKWVKVEGWENAEAAKAEIVASFERAKNK
For B10, the Tm came out at 84 °C (Escherichia coli (strain K12), pH 7, Thermal, CD, HEPES 20 mM, MgCl2 5 mM) and 58 °C (Escherichia coli (strain K12), pH 7, Thermal, CD, HEPES 20 mM).

B11: DNA-binding transcriptional dual regulator CRP wild type, P0ACJ8 (protein)
chain: MVLGKPQTDPTLEWFLSHCHIHKYPSKSTLIHQGEKAETLYYIVKGSVAVLIKDEEGKEMILSYLNQGDFIGELGLFEEGQERSAWVRAKTACEVAEISYKKFRQLIQVNPDILMRLSAQMARRLQVTSEKVGNLAFLDVTGRIAQTLLNLAKQPDAMTHPDGMQIKITRQEIGQIVGCSRETVGRILKMLEDQNLISAHGKTIVVYGTR
As to B11, under setting [5], the Tm came to 66.4 °C, the “heat capacity change of unfolding” value is 0.42 kcal/mol/K, the “unfolding enthalpy (calorimetric)” value turned out to be 131 kcal/mol and the “unfolding enthalpy (van 't Hoff)” value was found to be 231 kcal/mol. The unfolding free energy (Escherichia coli (strain K12), pH 7.9, 20 °C, GdnHCl, CD, Tris-HCl 50 mM, KCl 0.1 M, reversible: yes) worked out at 7.2 kcal/mol. Also, the unfolding free energy (Escherichia coli (strain K12), pH 7.9, 20 °C, Thermal, CD, Tris-HCl 50 mM, KCl 100 mM, reversible: yes) was 7.32 kcal/mol.

B12: Outer membrane porin F wild type, P02931 (protein)
chain: MMKRNILAVIVPALLVAGTANAAEIYNKDGNKVDLYGKAVGLHYFSKGNGENSYGGNGDMTYARLGFKGETQINSDLTGYGQWEYNFQGNNSEGADAQTGNKTRLAFAGLKYADVGSFDYGRNYGVVYDALGYTDMLPEFGGDTAYSDDFFVGRVGGVATYRNSNFFGLVDGLNFAVQYLGKNERDTARRSNGDGVGGSISYEYEGFGIVGAYGAADRTNLQEAQPLGNGKKAEQWATGLKYDANNIYLAANYGETRNATPITNKFTNTSGFANKTQDVLLVAQYQFDFGLRPSIAYTKSKAKDVEGIGDVDLVNYFEVGATYYFNKNMSTYVDYIINQIDSDNKLGVGSDDTVAVGIVYQF
On to B12, for which the midpoint of thermal melting (Tm) (Escherichia coli (strain K12), pH 7.5, Thermal, CD, Tris 50mM) stood at 79.3 °C.

B13: Co-chaperonin GroES wild type, P0A6F9 (protein)
chain: MNIRPLHDRVIVKRKEVETKSAGGIVLTGSAAAKSTRGEVLAVGNGRILENGEVKPLDVKVGDIVIFNDGYGVKSEKIDNEEVLIMSESDILAIVEA
In the case of B13, under setting [6], the denaturant m value is 1.83 kcal/mol/M and the unfolding free energy amounted to 5.77 kcal/mol.

B14: Ribose import binding protein RbsB wild type, P02925 (protein)
chain: MNMKKLATLVSAVALSATVSANAMAKDTIALVVSTLNNPFFVSLKDGAQKEADKLGYNLVVLDSQNNPAKELANVQDLTVRGTKILLINPTDSDAVGNAVKMANQANIPVITLDRQATKGEVVSHIASDNVLGGKIAGDYIAKKAGEGAKVIELQGIAGTSAARERGEGFQQAVAAHKFNVLASQPADFDRIKGLNVMQNLLTAHPDVQAVFAQNDEMALGALRALQTAGKSDVMVVGFDGTPDGEKAVNDGKLAATIAQLPDQIGAKGVETADKVLKGEKVQAKYPVDLKLVVKQ
As to B14, the unfolding free energy (Escherichia coli (strain K12), pH 7.7, 25 °C, GdnHCl, Fluorescence, HEPES 10 mM, reversible: yes) was 5.1 kcal/mol.

B15: Aspartate aminotransferase wild type, P00509 (protein)
chain: MFENITAAPADPILGLADLFRADERPGKINLGIGVYKDETGKTPVLTSVKKAEQYLLENETTKNYLGIDGIPEFGRCTQELLFGKGSALINDKRARTAQTPGGTGALRVAADFLAKNTSVKRVWVSNPSWPNHKSVFNSAGLEVREYAYYDAENHTLDFDALINSLNEAQAGDVVLFHGCCHNPTGIDPTLEQWQTLAQLSVEKGWLPLFDFAYQGFARGLEEDAEGLRAFAAMHKELIVASSYSKNFGLYNERVGACTLVAADSETVDRAFSQMKAAIRANYSNPPAHGASVVATILSNDALRAIWEQELTDMRQRIQRMRQLFVNTLQEKGANRDFSFIIKQNGMFSFSGLTKEQVLRLREEFGVYAVASGRVNVAGMTPDNMAPLCEAIVAVL
On to B15, for which the denaturant m value amounted to 3.4 kcal/mol/M under setting [7] and 4.8 kcal/mol/M under setting [8]. Besides, the unfolding free energy reads like this: under setting [7], 24.4 kcal/mol; under setting [8], 12 kcal/mol; (Escherichia coli (strain K12), pH 7.5, 25 °C, Urea, enzyme activity, potassium phosphate 20 mM) 10 kcal/mol.

B16: Peptide deformylase wild type, P0A6K3 (protein)
chain: MSVLQVLHIPDERLRKVAKPVEEVNAEIQRIVDDMFETMYAEEGIGLAATQVDIHQRIIVIDVSENRDERLVLINPELLEKSGETGIEEGCLSIPEQRALVPRAEKVKIRALDRDGKPFELEADGLLAICIQHEMDHLVGKLFMDYLSPLKQQRIRQKVEKLDRLKARA
As for B16, under setting [9], the denaturant m value was 1.8 kcal/mol/M and the unfolding free energy is 4.4 kcal/mol.

B17: L-asparaginase 2 wild type, P00805 (protein)
chain: MEFFKKTALAALVMGFSGAALALPNITILATGGTIAGGGDSATKSNYTVGKVGVENLVNAVPQLKDIANVKGEQVVNIGSQDMNDNVWLTLAKKINTDCDKTDGFVITHGTDTMEETAYFLDLTVKCDKPVVMVGAMRPSTSMSADGPFNLYNAVVTAADKASANRGVLVVMNDTVLDGRDVTKTNTTDVATFKSVNYGPLGYIHNGKIDYQRTPARKHTSDTPFDVSKLNELPKVGIVYNYANASDLPAKALVDAGYDGIVSAGVGNGNLYKSVFDTLATAAKTGTAVVRSSRVPTGATTQDAEVDDAKYGFVASGTLNPQKARVLLQLALTQTKDPQQIQQIFNQY
As to B17, the unfolding free energy (Escherichia coli (strain K12), pH 7.4, 25 °C, Urea, Fluorescence, Tris-HCl 50 mM) amounted to 11.5 kcal/mol.

A word on the Tm: it is the temperature at which the thermal transition is half complete.
